The text below walks through data of patent US20230035859A1, “COMPOSITIONS AND METHODS FOR EPITOPE SCANNING” (priority 2019, published 2023).

The target of assay [1] is HLA-A*02:01 (human).
Assay [2] has as its target QuickSwitch Quant HLA-A*02:01 Tetramers (PE or APC labeled) (MBL International), A*02:0. Nature of the assay: QuickSwitch Quant tetramer control peptide exchange.

In assay [1], VMAYITGGVV (modifications not checked) registered an EpiScan MFI of 4.64. In assay [2], this molecule gave a % Peptide Exchange of 99.1%.
Taken in the same sequence, the figures for VMAYITGGV (modifications not checked) were 4.53 and 99.1%.
With AMDEFIERYKL (modifications not checked), in assay [1], the EpiScan MFI amounted to 2.35. Also, in assay [2], the % Peptide Exchange stood at 96.9%.
The matching figures for VMVELVAEL (modifications not checked): 5.34 and 98.6%.
Taken in the same sequence, the figures for VLYQDVNCTEV (modifications not checked) were 5.6 and 97.9%.
Taken in the same sequence, the figures for SLPGVFCGV (modifications not checked) were 6.42 and 98%.
For the molecule TLATHGLAAV (modifications not checked), the EpiScan MFI in assay [1] came out at 4.04. The molecule further showed a % Peptide Exchange in assay [2] of 98%.
YIDIGNYTV (modifications not checked) gave an EpiScan MFI in assay [1] of 4.42. In addition, in assay [2], the % Peptide Exchange was 97.9%.
